Reference: article PMC3032050, “LPS ligand and culture additives improve production of monomeric MD-1 and 2 in Pichia pastoris by decreasing aggregation and intermolecular disulfide bonding” (Protein Expression and Purification, 2011)

Columns and labels:
[1] = target: T1, human MD-2 (myeloid differentiation factor 2) (human), Q9Y6Y9; assay: SEC; nickel-purified protein on HiLoad 16/60 Superdex 200 in 50 mM sodium acetate, pH 5.0; without additive, or with the anti-aggregation additive (0.2 M MgSO4 for hMD-2) in culture medium and buffers; conditions: remark: other sources report otherwise
T1 chain: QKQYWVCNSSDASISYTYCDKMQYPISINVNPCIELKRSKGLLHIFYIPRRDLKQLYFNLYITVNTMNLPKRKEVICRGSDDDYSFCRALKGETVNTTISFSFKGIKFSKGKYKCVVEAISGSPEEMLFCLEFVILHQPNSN

[2] = target: the molecule itself; assay: non-reducing SDS-PAGE with anti-His Western blot; culture supernatants of GS115 and KM71H cultures, induced without or with culture additives

B1: human MD-2 (myeloid differentiation factor 2), Q9Y6Y9 19-160 (natural protein)
chain: QKQYWVCNSSDASISYTYCDKMQYPISINVNPCIELKRSKGLLHIFYIPRRDLKQLYFNLYITVNTMNLPKRKEVICRGSDDDYSFCRALKGETVNTTISFSFKGIKFSKGKYKCVVEAISGSPEEMLFCLEFVILHQPNSN
For B1, the percent monomeric (with 0.2 M MgSO4) [1] was 15%.

B2: human MD-1 (myeloid differentiation factor 1) (natural protein, UniProt O95711 21-162, looked up)
chain: GGGGKAWPTHVVCSDSGLEVLYQSCDPLQDFGFSVEKCSKQLKSNINIRFGIILREDIKELFLDLALMSQGSSVLNFSYPICEAALPKFSFCGRRKGEQIYYAGPVNNPEFTIPQGEYQVLLELYTEKRSTVACANATIMCS
notes: A TEV cleavage site lies between the His6-tag and the protein; Secreted by the S. cerevisiae alpha factor prepro peptide; Glycoprotein; also called hMD-1; source: Pichia pastoris GS115 or KM71H (pPIC9K), secreted; not shown: His6, N-terminal, kept
B2: binds [2].
